{"source": "paper PMC12045373", "molecular_target": "human c-type lysozyme purified from human neutrophils (HL) (human) (UniProt P61626)", "sequence (P61626 19-148)": "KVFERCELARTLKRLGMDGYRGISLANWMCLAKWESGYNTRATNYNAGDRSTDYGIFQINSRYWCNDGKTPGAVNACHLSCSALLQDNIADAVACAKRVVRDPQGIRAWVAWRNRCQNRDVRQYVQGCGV", "data": [{"substance": "recombinant, mature Neisseria gonorrhoeae Adhesin Complex Protein (rACP) (natural protein)", "values": [{"measurement": "percent of HL hydrolytic activity restored in the presence of rACP by pooled terminal RO serum (polyclonal) of mice immunized with rACP alone", "result": 19.3, "unit": "%"}, {"measurement": "percent of HL hydrolytic activity restored in the presence of rACP by pooled terminal RO serum (polyclonal) of mice immunized with rACP+CpG", "result": 59.9, "unit": "%"}, {"measurement": "percent of HL hydrolytic activity restored in the presence of rACP by pooled terminal SV serum (polyclonal) of mice immunized with rACP alone", "result": 30.1, "unit": "%"}, {"measurement": "percent of HL hydrolytic activity restored in the presence of rACP by pooled terminal SV serum (polyclonal) of mice immunized with rACP+CpG", "result": 75.2, "unit": "%"}]}]}
